# Source: publication PMC9863245, “A Putative New Role of Tv-PSP1 Recognizes IRE and ERE Hairpin Structures from Trichomonas vaginalis”
# Legend:
# [1] = target: Tv-PSP1, perchloric-acid-soluble protein (PSP) from Trichomonas vaginalis (Trichomonas vaginalis); assay: crystal structure; recombinant Tv-PSP1 20 mg/mL in 25 mM Tris-HCl pH 7.4, 150 mM NaCl, 1 mM DTT; sitting-drop vapor diffusion at 18 °C; space group P63, 1.95 Å; trimers built from the same monomer of different asymmetric units, interfaces analysed with PISA
# [2] = target: T1, Tv-PSP1 (Trichomonas vaginalis, UniProt A2DAL5 1-124); assay: EMSA; 3 mM Mg2+; REMSA: 50 mM Tris-HCl, 75 mM KCl, 3 mM MgCl2, 10 mM DTT, 37 C, 30 min, pH not stated; 100 ug protein, 1 ug RNA; 1.7% agarose; settings: protein: recombinant; chain copies: 3; hairpin
# T1 sequence: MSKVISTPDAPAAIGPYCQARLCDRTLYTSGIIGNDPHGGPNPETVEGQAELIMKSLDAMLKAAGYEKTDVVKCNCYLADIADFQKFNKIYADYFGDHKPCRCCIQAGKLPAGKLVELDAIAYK
Molecule,stoichiometry N [1],binding result [2]
"Tv-PSP1, perchloric-acid-soluble protein (PSP) from Trichomonas vaginalis (natural protein)",3,–
GGGGUUUAGAAUUUCCAAUAA (structured_RNA) [ERE-like (tvcp39 3' UTR)],–,binds
